Reference: patent US20020068706A1 (GPC BIOTECH, published 2002)

How the values were obtained:
cdc2/cyclin B complex = cdc2/cyclin B complex (UniProt P06493 1-297); experiment: cell-based or functional assay
CDK2/cyclin A complex = CDK2/cyclin A complex (UniProt P24941 1-298); experiment: cell-based or functional assay
CDK2/cyclin E complex = CDK2/cyclin E complex (UniProt P24941 1-298); experiment: cell-based or functional assay
CDK4/cyclin D1 complex [1] = biological target: T1, CDK4/cyclin D1 complex (UniProt P11802 1-303; P24385 1-295); experiment: cell-based or functional assay
CDK4/cyclin D1 complex [2] = biological target: T1, CDK4/cyclin D1 complex; experiment: inhibition constant from in vitro kinase assay (Sf9 extract, Gst-Rb substrate)

T1 sequence (P11802 whole entry, chain 1 of 2): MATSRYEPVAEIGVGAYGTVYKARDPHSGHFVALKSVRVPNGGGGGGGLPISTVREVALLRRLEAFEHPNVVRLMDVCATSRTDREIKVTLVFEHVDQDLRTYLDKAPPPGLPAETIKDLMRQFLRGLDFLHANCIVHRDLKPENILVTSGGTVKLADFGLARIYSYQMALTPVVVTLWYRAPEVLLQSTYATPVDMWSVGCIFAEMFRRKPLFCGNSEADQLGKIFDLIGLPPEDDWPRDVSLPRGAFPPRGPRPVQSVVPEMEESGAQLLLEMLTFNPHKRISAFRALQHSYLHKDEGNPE
T1 sequence (P24385 whole entry, chain 2 of 2): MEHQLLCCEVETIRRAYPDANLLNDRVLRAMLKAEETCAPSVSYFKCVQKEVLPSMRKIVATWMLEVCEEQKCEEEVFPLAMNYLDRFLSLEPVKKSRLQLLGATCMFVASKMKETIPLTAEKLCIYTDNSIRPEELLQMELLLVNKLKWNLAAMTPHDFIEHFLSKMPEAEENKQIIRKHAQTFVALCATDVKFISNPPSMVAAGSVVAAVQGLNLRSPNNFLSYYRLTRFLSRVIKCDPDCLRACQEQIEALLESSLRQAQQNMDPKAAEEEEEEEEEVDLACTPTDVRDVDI
cdc2/cyclin B complex, sequence (P06493 whole entry, one chain of several): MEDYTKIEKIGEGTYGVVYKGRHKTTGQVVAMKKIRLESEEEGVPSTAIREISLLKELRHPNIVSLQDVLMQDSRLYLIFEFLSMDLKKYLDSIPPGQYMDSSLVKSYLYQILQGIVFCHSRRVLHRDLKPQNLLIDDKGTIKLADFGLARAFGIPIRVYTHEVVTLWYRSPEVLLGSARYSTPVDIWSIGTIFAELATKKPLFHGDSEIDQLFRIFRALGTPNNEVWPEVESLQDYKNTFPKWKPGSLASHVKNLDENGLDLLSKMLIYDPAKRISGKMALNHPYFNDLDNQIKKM

- IC50 of in vitro kinase assay (32P incorporation into Gst-Rb) (cdc2/cyclin B complex): > 0.5 µM
- IC50 of in vitro kinase assay (32P incorporation into Gst-Rb) (CDK2/cyclin A complex): > 0.5 µM
- IC50 of in vitro kinase assay (32P incorporation into Gst-Rb) (CDK2/cyclin E complex): > 0.5 µM
- IC50 of in vitro kinase assay (32P incorporation into Gst-Rb) (CDK4/cyclin D1 complex [1]): 0.25 µM
- Ki (CDK4/cyclin D1 complex [2]): 0.075 µM
B1: p16 (other, human, UniProt P42771 1-156, looked up)
chain: MEPAAGSSMEPSADWLATAAARGRVEEVRALLEAGALPNAPNSYGRRPIQVMMMGSARVAELLLLHGAEPNCADPATLTRPVHDAAREGFLDTLVVLHRAGARLDVRDAWGRLPVDLAEELGHRDVARYLRAAAGGTRGSNHARIDAAEGPSDIPD
notes: also called p16^Ink4/MTS1; p16^INK4A
